# Data taken from patent publication US20250066499A1 (SUNSHINE GUOJIAN PHARMACEUTICAL SHANGHAI, published 2025).
# Numbering of substitutions follows the chain as printed.
# B1: 48A11-HuV33 (antibody, human IgG4, V domains shown)
# VH: QVQLVQSGAEVKKPGASVKVSCKASGYTFTSYWMHWVRQAPGQGLEWIGEINPSIGRTNYNEKFKSRVTLTRDTSTSTAYMELSSLRSEDTAVYYCARRVYGTMDYWGQGTLVTVSS
# VL: DIQMTQSPSSLSASVGDRVTITCKASQDINSYLSWFQQKPGKSPKLLIYRANIWVDGVPSRFSGSGSGQDYTFTISSLQPEDIATYYCLQYDELYTFGQGTKVEIK
# notes: Humanized
# Columns and labels:
# CD73-ND-T183A [1] = biological target: T1, CD73-ND-T183A (human, UniProt P21589 27-317); assay: ELISA, biotinylated antigen on streptavidin plate
# T1 construct: Alanine mutant of CD73-ND
# T1 sequence: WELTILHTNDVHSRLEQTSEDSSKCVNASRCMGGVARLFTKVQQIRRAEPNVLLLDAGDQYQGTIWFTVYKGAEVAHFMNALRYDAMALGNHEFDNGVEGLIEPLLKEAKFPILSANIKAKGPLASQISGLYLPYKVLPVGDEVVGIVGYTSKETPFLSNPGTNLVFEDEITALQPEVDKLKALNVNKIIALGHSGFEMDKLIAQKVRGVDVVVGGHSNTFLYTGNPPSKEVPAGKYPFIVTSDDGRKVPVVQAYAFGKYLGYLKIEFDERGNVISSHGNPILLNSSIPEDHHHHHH
# Description: (§1) The ELISA plates were coated with SA protein diluted to 1.5 μg/mL in coating buffer (50 mM carbonate coating buffer, pH 9.6) and incubated overnight at 4° C. The supernatant was discarded, and the plates were washed three times with PBST. Then, 5% skimmed milk powder prepared with PBS was added for blocking and the plates were incubated for 2 h at 37° C. After washing the plates once with PBST, CD73-biotin protein (prepared by biotinylating CD73-His protein according to the EZ-Link NHS-Biotin Reagent instructions) was diluted to 0.5 μg/mL and added at 100 μL/well for incubation at room temperature for 1 h. The plates were washed three times with PBST, and the prepared murine-derived monoclonal antibodies against human CD73 were serially diluted with 1% BSA buffer prepared with PBST and added to the ELISA plates at 100 μl/well. The plates were incubated at 37° C. for 1 h. After washing the plates three times with PBST, HRP-labeled goat anti-mouse IgG secondary antibody was added and the plates were incubated for 30 min at 37° C. After washing the plates three times with PBST, the residual droplets were patted dry on absorbent paper as much as possible. Then, 100 μl of TMB color developing solution was added to each well, and the plates were incubated in the dark at room temperature for 5 min for color development. Subsequently, 50 μl of 2M H₂SO₄ stop solution was added to each well to terminate the substrate reaction. The OD values were read at 450 nm using a multimode microplate reader to analyze the binding ability of the tested antibodies to the target antigen human CD73-His.
# (§2) Referring to the experimental method in Example 3, the affinity of 48A11-HuV33 for various mutant proteins of CD73-ND was determined. The SA protein was diluted to 1 μg/mL for coating the ELISA plates, and the biotinylated CD73 protein (CD73-biotin) was used at a concentration of 0.1 μg/mL.
# CD73-ND-his = biological target: T2, CD73-ND-his (human, UniProt P21589 27-317); assay: ELISA; decline multiple of Top against CD73-ND
# T2 construct: Biotinylated and captured on streptavidin in the ELISA
# T2 sequence: T1 sequence with A183T
# Description: as §1, §2
# CD73-ND-K180A = biological target: T3, CD73-ND-K180A (human, UniProt P21589 27-317); assay: ELISA; decline multiple of Top against CD73-ND
# T3 construct: Alanine mutant of CD73-ND
# T3 sequence: T1 sequence with K180A, A183T
# Description: as §1, §2
# CD73-ND-L181A = biological target: T4, CD73-ND-L181A (human, UniProt P21589 27-317); assay: ELISA; decline multiple of Top against CD73-ND
# T4 construct: Alanine mutant of CD73-ND
# T4 sequence: T1 sequence with L181A, A183T
# Description: as §1, §2
# CD73-ND-T183A [2] = biological target: T1, CD73-ND-T183A; assay: ELISA; decline multiple of Top against CD73-ND
# Description: as §1, §2
# CD73-ND-N185A = biological target: T5, CD73-ND-N185A (human, UniProt P21589 27-317); assay: ELISA; decline multiple of Top against CD73-ND
# T5 construct: Alanine mutant of CD73-ND
# T5 sequence: T1 sequence with A183T, N185A
# Description: as §1, §2
# CD73-ND-E143A = biological target: T6, CD73-ND-E143A (human, UniProt P21589 27-317); assay: ELISA; decline multiple of Top against CD73-ND
# T6 construct: Alanine mutant of CD73-ND
# T6 sequence: T1 sequence with E143A, A183T
# Description: as §1, §2
binder,measurement,setting,value
B1,EC50,CD73-ND-T183A [1],0.159 nM
same,Ratio(Top),CD73-ND-his,1 fold
same,Ratio(Top),CD73-ND-K180A,1.1 fold
same,Ratio(Top),CD73-ND-L181A,1.9 fold
same,Ratio(Top),CD73-ND-T183A [2],1 fold
same,Ratio(Top),CD73-ND-N185A,1 fold
same,Ratio(Top),CD73-ND-E143A,1.1 fold
